The data set concerns the target T1, DNA polymerase kappa catalytic core (Polκ19-526) (human, UniProt Q9UBT6 19-526).
T1 sequence: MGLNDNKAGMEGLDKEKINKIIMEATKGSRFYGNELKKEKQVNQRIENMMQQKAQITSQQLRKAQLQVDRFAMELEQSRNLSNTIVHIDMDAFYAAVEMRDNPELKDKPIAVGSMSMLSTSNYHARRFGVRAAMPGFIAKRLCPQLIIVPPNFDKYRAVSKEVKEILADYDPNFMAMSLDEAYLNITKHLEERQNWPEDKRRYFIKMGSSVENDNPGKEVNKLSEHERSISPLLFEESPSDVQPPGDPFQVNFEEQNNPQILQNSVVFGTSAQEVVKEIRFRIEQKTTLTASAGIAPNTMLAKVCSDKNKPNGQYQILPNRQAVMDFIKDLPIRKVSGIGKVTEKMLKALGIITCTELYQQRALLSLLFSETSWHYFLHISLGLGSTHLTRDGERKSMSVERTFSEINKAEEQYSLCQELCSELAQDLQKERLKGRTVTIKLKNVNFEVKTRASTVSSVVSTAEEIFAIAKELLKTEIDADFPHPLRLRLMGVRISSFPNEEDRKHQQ
The data set can be described thus: X-ray crystallography.

B1: 13-nt/18-nt primer/template with cis-syn T-T dimer (dsDNA)
DNA 1: TTCCTTGGTCCTTCCCCC
DNA 2: GGGGGAAGGACCA
modifications: cis-syn cyclobutane thymine dimer in template (T5-T6, position from pairing with primer); 3'-terminal dideoxyadenosine on primer
On to B1, for which the binding result was “binds”.
